{"source": "patent JP2023550785A", "about": "(dated 2023)", "key": {"[1]": {"target": "SARS-CoV (Urbani strain) prefusion-stabilized spike (S) protein / S ectodomain trimer (SARS-CoV (Urbani strain), UniProt P59594 14-1195)", "assay": "SPR (Biacore T200), S ectodomain trimer captured, Fab as analyte"}, "[2]": {"target": "T1, HCoV-HKU1 prefusion-stabilized spike (S) protein / S ectodomain trimer (human coronavirus HKU1, UniProt Q5MQD0 13-1300)", "T1 sequence": "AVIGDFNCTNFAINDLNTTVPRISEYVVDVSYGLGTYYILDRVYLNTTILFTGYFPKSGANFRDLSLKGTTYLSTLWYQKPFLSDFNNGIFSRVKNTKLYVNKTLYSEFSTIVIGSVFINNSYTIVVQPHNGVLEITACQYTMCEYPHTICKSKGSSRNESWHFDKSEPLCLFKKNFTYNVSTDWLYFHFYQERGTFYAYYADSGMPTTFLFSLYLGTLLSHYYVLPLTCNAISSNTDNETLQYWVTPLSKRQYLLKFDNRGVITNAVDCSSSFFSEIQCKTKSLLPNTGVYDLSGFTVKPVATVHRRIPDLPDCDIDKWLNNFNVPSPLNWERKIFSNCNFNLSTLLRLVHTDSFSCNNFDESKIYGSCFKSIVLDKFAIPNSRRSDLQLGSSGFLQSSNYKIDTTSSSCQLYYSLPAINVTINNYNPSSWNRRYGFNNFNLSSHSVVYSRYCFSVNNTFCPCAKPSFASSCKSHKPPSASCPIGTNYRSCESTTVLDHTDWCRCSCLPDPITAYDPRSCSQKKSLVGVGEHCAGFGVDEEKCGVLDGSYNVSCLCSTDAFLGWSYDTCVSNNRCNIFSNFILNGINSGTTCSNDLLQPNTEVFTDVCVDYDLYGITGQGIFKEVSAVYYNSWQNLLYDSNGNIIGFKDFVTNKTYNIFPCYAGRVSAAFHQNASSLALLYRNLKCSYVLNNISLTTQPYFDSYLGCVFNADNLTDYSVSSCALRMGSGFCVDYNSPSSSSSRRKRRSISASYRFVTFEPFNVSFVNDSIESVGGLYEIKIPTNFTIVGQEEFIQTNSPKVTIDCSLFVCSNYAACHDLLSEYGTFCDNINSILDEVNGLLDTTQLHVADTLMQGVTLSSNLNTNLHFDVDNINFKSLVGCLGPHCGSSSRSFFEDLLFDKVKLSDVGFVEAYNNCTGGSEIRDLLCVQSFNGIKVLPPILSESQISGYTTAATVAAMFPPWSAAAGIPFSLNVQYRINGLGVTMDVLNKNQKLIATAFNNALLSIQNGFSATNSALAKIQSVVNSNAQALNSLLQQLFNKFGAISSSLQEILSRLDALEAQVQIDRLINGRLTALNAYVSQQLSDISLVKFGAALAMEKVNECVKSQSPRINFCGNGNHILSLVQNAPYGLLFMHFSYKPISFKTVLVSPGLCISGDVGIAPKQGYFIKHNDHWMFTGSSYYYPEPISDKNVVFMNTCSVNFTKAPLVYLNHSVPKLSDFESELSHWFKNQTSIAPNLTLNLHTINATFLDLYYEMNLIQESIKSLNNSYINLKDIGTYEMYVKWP"}, "[3]": {"target": "T2, MERS-CoV (London1/2012) prefusion-stabilized spike (S) protein / S ectodomain trimer (MERS-CoV (London1/2012), UniProt K9N5Q8 18-1296)", "T2 sequence": "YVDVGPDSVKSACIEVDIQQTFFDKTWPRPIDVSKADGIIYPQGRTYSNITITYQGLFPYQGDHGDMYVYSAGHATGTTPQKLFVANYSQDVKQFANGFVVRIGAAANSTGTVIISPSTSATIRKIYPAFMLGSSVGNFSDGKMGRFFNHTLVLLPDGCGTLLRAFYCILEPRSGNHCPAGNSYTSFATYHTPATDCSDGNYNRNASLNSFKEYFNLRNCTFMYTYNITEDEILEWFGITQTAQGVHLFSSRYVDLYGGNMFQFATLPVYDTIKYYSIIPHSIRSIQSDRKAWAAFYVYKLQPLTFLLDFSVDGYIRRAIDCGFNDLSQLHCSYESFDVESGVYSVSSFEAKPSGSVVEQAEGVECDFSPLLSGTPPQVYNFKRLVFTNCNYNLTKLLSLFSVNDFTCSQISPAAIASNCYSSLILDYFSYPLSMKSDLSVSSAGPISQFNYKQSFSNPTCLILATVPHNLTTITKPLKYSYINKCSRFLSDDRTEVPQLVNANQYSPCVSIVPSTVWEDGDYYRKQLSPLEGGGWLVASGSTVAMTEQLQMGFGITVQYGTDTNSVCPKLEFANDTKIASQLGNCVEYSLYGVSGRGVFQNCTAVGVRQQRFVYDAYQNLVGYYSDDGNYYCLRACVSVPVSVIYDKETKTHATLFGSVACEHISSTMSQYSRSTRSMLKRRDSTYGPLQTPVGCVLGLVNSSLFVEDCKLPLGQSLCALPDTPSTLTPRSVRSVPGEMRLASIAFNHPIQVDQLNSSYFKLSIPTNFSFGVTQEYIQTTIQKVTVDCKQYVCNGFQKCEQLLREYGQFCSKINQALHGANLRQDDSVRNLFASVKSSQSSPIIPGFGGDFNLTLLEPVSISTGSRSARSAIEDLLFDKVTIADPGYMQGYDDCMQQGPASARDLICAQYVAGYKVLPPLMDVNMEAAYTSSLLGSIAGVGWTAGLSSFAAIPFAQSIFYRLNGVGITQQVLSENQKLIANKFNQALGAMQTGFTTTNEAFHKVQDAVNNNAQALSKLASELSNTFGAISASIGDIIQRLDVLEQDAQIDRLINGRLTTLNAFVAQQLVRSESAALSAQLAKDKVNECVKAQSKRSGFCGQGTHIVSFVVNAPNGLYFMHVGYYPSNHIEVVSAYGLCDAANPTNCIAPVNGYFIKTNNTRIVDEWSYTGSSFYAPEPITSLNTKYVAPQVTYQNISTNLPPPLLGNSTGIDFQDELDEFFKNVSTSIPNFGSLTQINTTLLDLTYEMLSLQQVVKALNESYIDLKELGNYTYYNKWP"}}, "data": [{"binder": "S2P6 Fab fragment (Fab, V domains shown) VH: EVQLVQSGAEVKKPGASVKVSCKASGYTFTSQYMHWVRQAPGQGLEWIGIINPSGVHTSYAQKFQGRVTLTRDTSTSTLYMELSSLRSEDTAVYYCARGSPKGAFDYWGQGTLVTVSS VL: not shown", "values": [{"measurement": "Kd", "setting": "[1]", "value": 7, "unit": "nM"}, {"measurement": "Kd", "setting": "[2]", "value": "~120", "unit": "nM"}, {"measurement": "Kd", "setting": "[3]", "value": 12, "unit": "nM"}]}]}
